One assay concerns the target T1, hen egg lysozyme (hen, UniProt P00698 19-147).
T1 construct: also called HEL
In words: selection from a dAb library.

The target in assay [1] is T2, mouse TNFR1 on L929 cells (mouse, UniProt P25118 30-454).
T2 sequence (looked up): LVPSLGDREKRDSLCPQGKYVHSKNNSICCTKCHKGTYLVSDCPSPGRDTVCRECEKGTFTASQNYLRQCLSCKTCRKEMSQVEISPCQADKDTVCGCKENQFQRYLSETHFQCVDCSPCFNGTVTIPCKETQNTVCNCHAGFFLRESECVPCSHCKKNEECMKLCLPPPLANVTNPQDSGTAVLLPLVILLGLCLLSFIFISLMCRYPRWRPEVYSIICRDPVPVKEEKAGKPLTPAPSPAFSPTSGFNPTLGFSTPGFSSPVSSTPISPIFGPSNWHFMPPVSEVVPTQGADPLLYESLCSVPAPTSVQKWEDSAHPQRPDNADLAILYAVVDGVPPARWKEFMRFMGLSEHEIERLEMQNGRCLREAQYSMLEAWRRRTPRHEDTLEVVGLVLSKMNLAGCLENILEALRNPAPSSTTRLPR
In words: cell-based or functional assay.

Assay [2] has as its target T2, mouse TNFR1 on L929 cells. The experiment in a line: cell-based or functional assay. This is another data set of the same source.
The next assay concerns the target T3, mouse TNFR1 (mouse, UniProt P25118 30-212, limits assumed).
T3 construct: also called murine TNFR1; biotinylated murine TNFR1
T3 sequence: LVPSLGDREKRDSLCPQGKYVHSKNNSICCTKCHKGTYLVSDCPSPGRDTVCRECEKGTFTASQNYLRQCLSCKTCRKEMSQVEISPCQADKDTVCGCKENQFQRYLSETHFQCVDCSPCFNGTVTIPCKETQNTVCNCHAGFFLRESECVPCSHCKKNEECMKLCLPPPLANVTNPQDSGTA
The experiment in a line: receptor binding assay.

Assay [3] concerns the target T4, human TNFR1 (human p55 TNF receptor) (human, UniProt P19438 30-211, limits assumed).
T4 construct: also called TAR2; human TNF receptor 1
T4 sequence: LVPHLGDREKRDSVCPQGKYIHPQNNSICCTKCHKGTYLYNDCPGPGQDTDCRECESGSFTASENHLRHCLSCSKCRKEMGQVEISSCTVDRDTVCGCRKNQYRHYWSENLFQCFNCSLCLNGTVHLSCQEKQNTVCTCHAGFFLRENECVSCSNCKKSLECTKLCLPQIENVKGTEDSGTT
In words: SPR on biotinylated TNFR1, competition with chimeric TNFR1. As for the experimental part: This example describes a method that was used to determine the domain specificity of dAbs that bind TNFR1. […] If the dAb is pre-incubated and equilibrated with a chimeric molecule that comprises the domain(s) of TNFR1 that the particular dAb binds, then flow of this mixture over the TNFR1 surface will produce a smaller SPR signal relative to the dAb alone.
Once the optimum anti-TNFR1 dAb concentration was determined, anti-TNFR1 dAb/chimeric TNFR1 mixes were set up. Mixes were set up such that the final concentration of anti-TNFR1 dAb was identical to the optimal concentration determined previously. Reactions were typically set up in 100 μl volumes containing 50 microliters of a 2× concentrate of anti-TNFR1 dAb, 40 microliters of Biacore buffer and 10 microliters of neat, purified chimeric protein. Typical concentrations for the final mix were about 10-100 μM of chimeric protein and about 10-100 nM anti-TNFR1 dAb. Mixtures were allowed to equilibrate for 30 minutes at room temperature.

Where a chain is given by its changes, count along the chain named.

T1 sequence (P00698 19-147): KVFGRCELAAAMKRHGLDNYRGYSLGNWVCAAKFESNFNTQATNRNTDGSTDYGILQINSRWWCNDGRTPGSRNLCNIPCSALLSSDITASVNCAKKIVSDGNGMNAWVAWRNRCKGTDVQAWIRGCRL

B1: HEL4 (other)
VH: EVQLLESGGGLVQPGGSLRLSCAASGFRISDEDMGWVRQAPGKGLEWVSSIYGPSGSTYYADSVKGRFTISRDNSKNTLYLQMNSLRAEDTAVYYCASALEPLSEPLGFWGQGTLVTVSS
notes: VH dAb
Take B1: the binding result with hen egg lysozyme was “binds”.

B2: TAR2m21-23 dimer (other)
VH: EVQLLESGGGLVQPGGSLRLSCAASGFTFNRYSMGWLRQAPGKGLEWVSRIDSYGRGTYYEDPVKGRFSISRDNSKNTLYLQMNSLRAEDTAVYYCAKISQFGSNAFDYWGQGTQVTVSSC
For the molecule B2, the “fold decrease in ND50 of the dimer against the monomer” value in assay [1] is approximately 10 fold.

B3: TAR2m-21-10 (other)
chain: EVQLLESGGGLVQPGGSLRLSCAASGFTFTRYSMGWLRQAPGKGLEWVSRIDSYGRGTYYADSVKGRFTISRDNSKNTLYLQMNSLRAEDTAVYYCAKISQFGSNAFDYWGQGTLVTVSS
Take B3: in assay [2], the “L929 Cell Assay, Activity (IC50)” value turned out to be 30 nM.

B4: TAR2m-21-17 (other)
chain: B3 chain with L37V, L115V
Take B4: the “L929 Cell Assay, Activity (IC50)” value in assay [2] is 300 nM.

B5: TAR2m-21-06 (other)
chain: B3 chain with L37I
Turning to B5, in assay [2], the “L929 Cell Assay, Activity (IC50)” value was 100 nM.

B6: TAR2m-19 (other)
chain: EVQLLESGGGLVQPGGSLRLSCAASGFTFRKYDMHWVRQAPGKGLEWVSTISPSGRRTYYADSVKGRFTISRDNSKNTLYLQMNSLRAEDTAVYYCAENLDQVLSFDYWGQGTLVTVSS
notes: anti-mouse TNFR1 dAb
As to B6, the half-inhibitory concentration (IC50) – broadly, the midpoint of a concentration-inhibition curve – with mouse TNFR1 turned out to be 2000 nM. Moreover, the “L929 Cell Assay, Activity (IC50)” value in assay [2] came out at 10000 nM.

B7: TAR2m-20 (other)
chain: EVQLLESGGGLVQPGGSLRLSCAASGFTFGSYSMSWVRQAPGKGLEWVSGIDNGGHSTYYADSVKGRFTISRDNSKNTLYLQMNSLRAEDTAVYYCAKRSSGLPFPFDYWGQGTLVTVSS
notes: anti-mouse TNFR1 dAb
Consider B7, for which the 50% inhibitory concentration (IC50) with mouse TNFR1 worked out at 150 nM.

B8: TAR2h-35-4 (other)
chain: EVQLLESGGGLVQPGGSLRLSCAASGFTFDAYNMFWFRQAPGKGPEWVSAIGPSGRETYYADSVKGRFTITRDNSKNTLYLQMNSLRAEDTAVYYCAKRYPDFDYWGQGTLVTVSS
notes: anti-human TNFR1 dAb
For the molecule B8, the binding result in assay [3] is listed as “binds”.

B9: TAR2h-131-8 (other)
chain: EVQLLESGGGLIQPGGSLRLSCAASGFTFAHETMVWVRQAPGKGLEWVSHIDRVGQDTYYADSVKGRFTISRDNSKNTLYLQMNSLRAEDTAVYYCAKLPKRGPWFDYRGQGTLVTVSS
notes: anti-human TNFR1 dAb
For the molecule B9, in assay [3], the binding result was “binds”.

B10: TAR2h-15-8 (other)
chain: EVRLLESGGGLVQPGGSLRLSCVASGFTFGKSTMTWVRQAPGKGLEWVSHISDDGNSTYYADSVKGRFTISRDNSKNTLYLQMNSLRAEDTAVYYCAKVPILAPRNLFDYWGQGTLVTVSS
notes: anti-human TNFR1 dAb
Regarding B10, the binding result in assay [3] was “binds”.

The values are drawn from patent US20130022605A1 (published 2013).
